The text below walks through data of patent US20230340151A1 (Pfizer, published 2023).

Assay [1] has as its target T1, Cynomolgus GUCY2C-ECD Cleaved (cynomolgus, UniProt P25092 24-430 (human entry)).
T1 construct: also called CyGUCY2C
T1 chain: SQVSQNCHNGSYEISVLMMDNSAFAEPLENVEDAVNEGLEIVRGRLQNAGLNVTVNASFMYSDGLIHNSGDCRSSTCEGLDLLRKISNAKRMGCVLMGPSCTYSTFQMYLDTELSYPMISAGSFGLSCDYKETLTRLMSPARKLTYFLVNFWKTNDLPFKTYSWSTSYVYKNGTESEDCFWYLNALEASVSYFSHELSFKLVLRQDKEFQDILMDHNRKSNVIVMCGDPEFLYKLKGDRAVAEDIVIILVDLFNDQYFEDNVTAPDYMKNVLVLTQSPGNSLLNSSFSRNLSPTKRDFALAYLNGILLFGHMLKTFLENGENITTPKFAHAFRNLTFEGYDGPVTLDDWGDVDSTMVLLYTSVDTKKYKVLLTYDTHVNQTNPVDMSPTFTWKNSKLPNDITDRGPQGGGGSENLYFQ
The assay can be described thus: direct DELFIA, RT.

In assay [2] the target is T2, Human GUCY2C full length (SEQ ID NO: 224), recombinant protein (human, UniProt P25092 24-430, limits assumed).
T2 construct: also called huGUCY2C; biotinylated human GUCY2c
T2 sequence (P25092 24-430 F281L limits assumed): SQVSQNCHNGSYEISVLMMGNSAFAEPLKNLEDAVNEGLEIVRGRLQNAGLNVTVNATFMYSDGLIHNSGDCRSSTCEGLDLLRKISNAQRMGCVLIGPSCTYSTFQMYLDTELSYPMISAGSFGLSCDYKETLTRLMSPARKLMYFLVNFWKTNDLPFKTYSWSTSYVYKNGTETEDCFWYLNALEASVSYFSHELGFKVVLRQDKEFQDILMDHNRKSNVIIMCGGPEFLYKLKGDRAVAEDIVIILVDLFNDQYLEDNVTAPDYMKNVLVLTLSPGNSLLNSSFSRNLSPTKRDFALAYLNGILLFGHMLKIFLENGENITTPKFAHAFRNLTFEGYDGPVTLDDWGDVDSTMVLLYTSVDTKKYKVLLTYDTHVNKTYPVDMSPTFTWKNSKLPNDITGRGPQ
The assay can be described thus: SPR, GUCY2c directly immobilized, 25 C. Background: Surface plasmon resonance follows binding to a sensor surface in real time, without labels.

The target in assay [3] is T3, Murine GUCY2C-ECD cleaved (mouse, UniProt Q3UWA6 20-433).
T3 sequence: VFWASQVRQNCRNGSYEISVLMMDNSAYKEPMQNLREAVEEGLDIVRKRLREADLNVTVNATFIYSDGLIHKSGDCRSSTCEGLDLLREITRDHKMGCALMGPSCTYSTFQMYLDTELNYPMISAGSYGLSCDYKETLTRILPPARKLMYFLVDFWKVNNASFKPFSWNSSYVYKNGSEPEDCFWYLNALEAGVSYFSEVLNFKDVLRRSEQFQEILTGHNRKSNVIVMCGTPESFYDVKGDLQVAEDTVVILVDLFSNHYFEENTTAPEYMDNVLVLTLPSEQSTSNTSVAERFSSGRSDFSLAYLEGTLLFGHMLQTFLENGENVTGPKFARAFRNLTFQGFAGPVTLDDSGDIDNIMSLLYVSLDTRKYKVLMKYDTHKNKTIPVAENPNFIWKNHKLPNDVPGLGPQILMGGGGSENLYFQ
In words: SPR, GUCY2c directly immobilized, 25 C.

Assay [4] concerns the target T3, Murine GUCY2C-ECD cleaved. In words: SPR, GUCY2c directly immobilized, 37 C.
The target of assay [5] is T4, Human GUCY2c on tumor cells (T84, HT55) (human, UniProt P25092 24-1073).
T4 construct: Endogenous receptor; also called GUCY2c expressing cell lines; T84 cells expressing human GUCY2c
T4 sequence (P25092 24-1073 limits assumed): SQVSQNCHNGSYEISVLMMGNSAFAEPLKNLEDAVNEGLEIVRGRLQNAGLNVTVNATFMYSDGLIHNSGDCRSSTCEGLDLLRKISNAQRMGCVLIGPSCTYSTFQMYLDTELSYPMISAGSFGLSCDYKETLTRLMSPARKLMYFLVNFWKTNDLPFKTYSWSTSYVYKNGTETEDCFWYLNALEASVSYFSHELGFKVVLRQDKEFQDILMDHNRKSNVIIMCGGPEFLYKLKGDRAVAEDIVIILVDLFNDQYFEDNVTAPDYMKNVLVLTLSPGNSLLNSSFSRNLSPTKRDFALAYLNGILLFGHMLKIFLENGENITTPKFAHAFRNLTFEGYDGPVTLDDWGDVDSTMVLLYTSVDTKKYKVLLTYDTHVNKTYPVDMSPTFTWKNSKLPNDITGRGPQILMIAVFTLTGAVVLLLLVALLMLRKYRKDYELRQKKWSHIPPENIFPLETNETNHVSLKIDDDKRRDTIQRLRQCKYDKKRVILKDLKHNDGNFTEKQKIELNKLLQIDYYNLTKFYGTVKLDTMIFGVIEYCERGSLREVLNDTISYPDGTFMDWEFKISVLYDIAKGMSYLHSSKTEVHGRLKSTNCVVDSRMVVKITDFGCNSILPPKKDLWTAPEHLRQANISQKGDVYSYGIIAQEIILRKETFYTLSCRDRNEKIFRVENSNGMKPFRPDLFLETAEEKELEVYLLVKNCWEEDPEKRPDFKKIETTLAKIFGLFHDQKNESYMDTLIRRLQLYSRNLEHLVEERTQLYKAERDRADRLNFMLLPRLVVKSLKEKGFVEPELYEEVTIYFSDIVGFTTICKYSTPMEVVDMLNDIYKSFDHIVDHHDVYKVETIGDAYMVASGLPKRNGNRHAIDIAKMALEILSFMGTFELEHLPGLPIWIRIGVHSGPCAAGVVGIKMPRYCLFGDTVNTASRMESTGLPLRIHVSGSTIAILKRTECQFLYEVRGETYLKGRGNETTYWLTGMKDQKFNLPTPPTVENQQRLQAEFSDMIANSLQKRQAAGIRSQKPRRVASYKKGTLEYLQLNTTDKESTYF
The assay can be described thus: flow cytometry titration on T84 tumor cells (PE-A Geo Mean against Ab in nM). A general note: A flow cytometer gives signals particle by particle.

Assay [6] concerns the target T5, CID1876 (human-chicken GUCY2c chimera) (human/chicken).
T5 chain: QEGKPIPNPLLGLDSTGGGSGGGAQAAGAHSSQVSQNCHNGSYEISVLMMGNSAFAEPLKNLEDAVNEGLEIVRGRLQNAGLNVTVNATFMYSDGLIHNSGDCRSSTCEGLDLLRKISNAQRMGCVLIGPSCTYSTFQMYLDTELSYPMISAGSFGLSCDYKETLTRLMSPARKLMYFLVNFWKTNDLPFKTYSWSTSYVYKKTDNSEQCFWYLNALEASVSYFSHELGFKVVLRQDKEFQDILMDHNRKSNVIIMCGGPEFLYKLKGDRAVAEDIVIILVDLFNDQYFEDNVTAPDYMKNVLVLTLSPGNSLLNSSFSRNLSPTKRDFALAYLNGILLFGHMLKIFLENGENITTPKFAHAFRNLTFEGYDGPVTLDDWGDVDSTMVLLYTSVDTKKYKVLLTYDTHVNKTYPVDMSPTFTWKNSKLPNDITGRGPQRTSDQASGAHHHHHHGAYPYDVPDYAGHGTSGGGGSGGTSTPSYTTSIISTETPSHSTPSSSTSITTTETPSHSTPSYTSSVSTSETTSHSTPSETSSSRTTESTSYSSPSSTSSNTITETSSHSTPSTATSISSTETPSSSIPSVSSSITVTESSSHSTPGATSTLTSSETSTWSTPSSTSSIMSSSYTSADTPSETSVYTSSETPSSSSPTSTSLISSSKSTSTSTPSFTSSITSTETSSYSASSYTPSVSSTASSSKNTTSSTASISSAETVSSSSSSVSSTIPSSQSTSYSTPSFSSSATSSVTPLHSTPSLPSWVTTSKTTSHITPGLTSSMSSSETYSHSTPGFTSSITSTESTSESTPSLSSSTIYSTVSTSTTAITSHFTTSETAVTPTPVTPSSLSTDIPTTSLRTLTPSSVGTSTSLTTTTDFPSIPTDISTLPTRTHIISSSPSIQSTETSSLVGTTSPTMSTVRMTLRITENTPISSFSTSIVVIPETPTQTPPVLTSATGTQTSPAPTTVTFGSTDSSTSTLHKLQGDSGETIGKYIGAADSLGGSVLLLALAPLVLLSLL
In words: flow cytometry on cells displaying the construct.

B1: GUCY2C-1608 (bispecific antibody)
chain 1: DIQLTQSPSSLSASVGDRVTITCRASESVDYYGSSLLQWYQQKPGKAPKLLIYAASKLASGVPSRFSGSGSGTDFTLTISSLQPEDFATYYCQQTRKAYTFGQGTKLEIKGGGSGGGGEVQLVESGGGLVQPGGSLRLSCAASGFTFSDYYMTWVRQAPGKGLEWVAFIRNQARGYTSDHNPSVKGRFTISRDNAKNSLYLQMNSLRAEDTAVYYCARDRPSYYVLDYWGQGTTVTVSSGCPPCPAPEAAGAPSVFLFPPKPKDTLMISRTPEVTCVVVDVSHEDPEVKFNWYVDGVEVHNAKTKPREEQYNSTYRVVSVLTVLHQDWLNGKEYKCKVSNKALPAPIEKTISKAKGQPREPQVCTLPPSREEMTKNQVSLWCLVKGFYPSDIAVEWESNGQPENNYKTTPPVLDSDGSFFLYSKLTVDKSRWQQGNVFSCSVMHEALHNHYTQKSLSLSPG
chain 2: DIQMTQSPSSLSASVGDRVTITCTSSQSLFNVRSQKNYLAWYQQKPGKAPKLLIYWASTRESGVPSRFSGSGSGTDFTLTISSLQPEDFATYYCKQSYDLFTFGGGTKVEIKGGGGSGGGGEVQLVESGGGLVQPGGSLRLSCAASGFTFSSYWMHWVRQAPGKGLEWIGEIKPSNELTNVHEKFKDRFTISVDKAKNSAYLQMNSLRAEDTAVYYCTRTITTTEGYWFFDVWGQGTLVTVSSGCPPCPAPEAAGAPSVFLFPPKPKDTLMISRTPEVTCVVVDVSHEDPEVKFNWYVDGVEVHNAKTKPREEQYNSTYRVVSVLTVLHQDWLNGKEYKCKVSNKALPAPIEKTISKAKGQPREPQVYTLPPCREEMTKNQVSLSCAVKGFYPSDIAVEWESNGQPENNYKTTPPVLDSDGSFFLVSKLTVDKSRWQQGNVFSCSVMHEALHNHYTQKSLSLSPG
notes: also called GUCY2c CD3 bispecific
With B1, the EC50 (usually the concentration at which the effect is half-maximal) in assay [1] came to 9.84 nM. The equilibrium dissociation constant (Kd) (as a rule, the free concentration of one partner at which half of the binding sites on the other are occupied at equilibrium, for simple one-to-one binding) in assay [2] is 7.47 nM; in assay [3], 17.3 nM; in assay [4], 90.2 nM; in assay [5], 0.62 nM. The off-rate (koff) (usually the first-order rate constant of dissociation) in assay [2] came out at 0.000758 s⁻¹; in assay [3], 0.00157 s⁻¹; in assay [4], 0.0116 s⁻¹. In addition, the association rate constant (kon) (commonly the second-order rate constant of association) turned out to be 101000 M⁻¹ s⁻¹ in assay [2], 91200 M⁻¹ s⁻¹ in assay [3] and 129000 M⁻¹ s⁻¹ in assay [4]. Besides, in assay [6], the binding result is “binds”.
